Laboratory results from patent US8344120B2, “Nucleic acid molecules encoding rage fusion proteins” (TransTech Pharma, Inc., priority 2006, dated 2013).
“And” between values parts separate entries of the source, which are not always exact repeats. Identical values can stand only once. Like-named read-outs stand apart in the source and are kept apart here.

Tests used:
[1] = cited from earlier work
[2] = normal and diabetic rats; cited from earlier work
mouse model of AD = assay: APP transgenic mouse model of AD; type: in vivo, mice; settings: treated for 3 months, qod i.p.; versus vehicle and human IgG1
Procedure: Experiments were performed to evaluate whether TTP-4000 could affect amyloid formation and cognitive dysfunction in a mouse model of AD. The experiments utilized transgenic mice expressing the human Swedish mutant amyloid precursor protein (APP) under the control of the PDGF-B chain promoter. Over time, these mice generate high levels of the RAGE ligand, amyloid beta (Aβ).
The APP mice (male) used in this experiment were designed by microinjection of the human APP gene (with the Swedish and London mutations) into mouse eggs under the control of the platelet-derived growth factor B (PDGF-B) chain gene promoter. The mice were generated on a C57BL/6 background and were developed by Molecular Therapeutics Inc. Animals were fed ad libitum and maintained by brother sister mating. The mice generated from this construct develop amyloid deposits starting at 6 months of age. Animals were aged for 6 months and then maintained for 90 days and sacrificed for amyloid quantification.
APP transgenic mice were administered vehicle or TTP4000 every other day [qod (i.p.)] for 90 days starting at 6 months of age. At the end of the experiment, animals were sacrificed and examined for Aβ plaque burden in the brain (i.e., plaque number). A 6-month control APP group was used to determine the baseline of amyloid deposits. In addition, at the end of the study, the animals were subjected to behavioral (Morris water maze) analysis. The investigators were blinded to the study compounds. Samples were given to the mice at 0.25 ml/mouse/every other day.
For histological examination, the animals were anesthetized with an intraperitoneal injection (IP) of sodium pentobarbital (50 mg/kg). The animals were transcardially perfused with 4° C., phosphate-buffered saline (PBS) followed by 4% paraformaldehyde. The brains were removed and placed in 4% paraformaldehyde over night. The brains were processed to paraffin and embedded. Ten serial 30-μm thick sections through the brain were obtained. Sections were subjected to primary antibody overnight at 4° C. (Aβ peptide antibody) in order to detect the amyloid deposits in the brain of the transgenic animals (Guo et al., J. Neurosci., 22:5900-5909 (2002)). Sections were washed in Tris-buffered saline (TBS) and secondary antibody was added and incubated for 1 hour at room temperature. After washing, the sections were incubated as instructed in the Vector ABC Elite kit (Vector Laboratories) and stained with […] (DAB). The reactions were stopped in water and cover-slipped after treatment with xylene. The amyloid area in each section was determined with a computer-assisted image analysis system, consisting of a Power Macintosh computer equipped with a Quick Capture frame grabber card, Hitachi CCD camera mounted on an Olympus microscope and camera stand. NIH Image Analysis Software, v. 1.55 was used. The images were captured and the total area of amyloid was determined over the ten sections. A single operator blinded to treatment status performed all measurements. Summing the amyloid volumes of the sections and dividing by the total number of sections was done to calculate the amyloid volume.
For quantitative analysis, an enzyme-linked immunosorbent assay (ELISA) was used to measure the levels of human total Aβ, Aβtotal and Aβ1-42 in the brains of APP transgenic mice (Biosource International, Camarillo, Calif.). Aβtotal and Aβ1-42 were extracted from mouse brains by guanidine hydrochloride and quantified as described by the manufacturer. […]

amyloid-beta (Abeta) = biological target: T1, amyloid-beta (Abeta) (Homo sapiens, UniProt P05067); assay: In vitro ligand binding ELISA, immobilized amyloid-beta; settings: ligand 5 micrograms per well; fusion protein at increasing dilutions, 37° C. one hour
T1 construct: Amyloid Beta (1-40) from Biosource; purchased Biosource
T1 sequence (P05067 672-711 limits assumed): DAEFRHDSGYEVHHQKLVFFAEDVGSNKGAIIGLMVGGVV
Procedure: (§1) For example, the RAGE fusion protein may be used in a binding assay to identify potential RAGE ligands. In one example embodiment of such a binding assay, a known RAGE ligand may coated onto a solid substrate (e.g., Maxisorb plates) at a concentration of about 5 micrograms per well, where each well contains a total volume of about 100 microliters (4). The plates may be incubated at 4° C. overnight to allow the ligand to absorb or bind to the substrate. Alternatively, shorter incubation periods at higher temperature (e.g., room temperature) may be used. […] The RAGE fusion protein bound to the immobilized ligand may be detected in a variety of ways. […] The bound complex may be detected by adding the alkaline phosphatase substrate, para-nitrophenylphosphate (PNPP), and measuring conversion of PNPP to para-nitrophenol (PNP) as an increase in absorbance at 405 nm. […] In the absence of ligand (i.e., coating with only BSA) there was no increase in absorbance. […] Binding was detected by the addition of an immunodetection complex containing a monoclonal mouse anti-human IgG1 diluted 1:11,000 to a final assay concentration (FAC) of 21 ng/100 μL, a biotinylated goat anti-mouse IgG diluted 1:500, to a FAC of […], and an avidin-linked alkaline phosphatase. […]

S100b (S100) = biological target: T2, S100b (S100) (Homo sapiens, UniProt P04271); assay: In vitro ligand binding ELISA, immobilized S100b; settings: ligand 5 micrograms per well; fusion protein at increasing dilutions, 37° C. one hour
T2 sequence (P04271 1-92): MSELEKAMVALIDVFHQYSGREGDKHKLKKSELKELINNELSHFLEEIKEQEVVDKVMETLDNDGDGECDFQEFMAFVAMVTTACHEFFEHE
Procedure: as §1

amphoterin (Ampho) = biological target: T3, amphoterin (Ampho) (Homo sapiens, UniProt P09429); assay: In vitro ligand binding ELISA, immobilized amphoterin; settings: ligand 5 micrograms per well; fusion protein at increasing dilutions, 37° C. one hour
T3 sequence (P09429 1-215): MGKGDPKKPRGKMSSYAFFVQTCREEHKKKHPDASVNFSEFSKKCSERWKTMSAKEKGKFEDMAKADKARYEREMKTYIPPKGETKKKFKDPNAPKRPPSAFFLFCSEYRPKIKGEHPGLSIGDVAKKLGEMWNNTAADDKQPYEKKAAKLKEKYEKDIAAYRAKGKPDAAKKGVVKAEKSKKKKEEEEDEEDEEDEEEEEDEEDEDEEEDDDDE
Procedure: as §1

[3] = system: recurrent diabetes in syngeneic NOD transplant model; assay: Syngeneic islet transplantation in NOD mice; type: in vivo
Source text: Spontaneous autoimmune non-obese diabetic mice (NOD/LtJ) (12-25 weeks old) served as recipients for islet cells, while young pre-diabetic NOD/LtJ mice (6-7 weeks old) served as donors in syngeneic islet transplantation. Islets for transplantation were isolated as described above in Section A (Allogeneic Islet Transplantation). Diabetic NOD/LtJ mice received islet grafts within 2 days of the diagnosis of diabetes. 500-600 freshly isolated islets (approximately 550 islet equivalents) from donor mice were picked up with an infusion set and transplanted into the subcapular space of the right kidney. Test compounds were administered as soon as the islets were transplanted and continued for approximately 8 weeks. […] Islet graft function was monitored by serial blood glucose measurements daily for the first 2 weeks after islet transplantation, followed by every other day thereafter. Reversal of diabetes was defined as blood glucose less than 200 mg/dl on two consecutive measurements. Percentage graft loss was determined when blood glucose exceeded 250 mg/dl on two consecutive measurements.

[4] = 300 ug LD + 100 ug qod ip, syngeneic islets in NOD mice

Molecule: human sRAGE: human soluble RAGE (V, C1 and C2 domains)
- half-life ([1]; assessed by retention of immunoreactivity sRAGE): less than 2 hours
- half-life in plasma [1]: about 2 hours

Molecule: sRAGE: soluble RAGE: the RAGE protein that does not include the transmembrane region or the cytoplasmic tail; species not stated at the place [reference compound]
- half-life in plasma [1]: only a few hours

B1: rodent sRAGE: rodent soluble RAGE (protein, UniProt Q62151 23-340, looked up)
extracellular domain: GQNITARIGEPLVLSCKGAPKKPPQQLEWKLNTGRTEAWKVLSPQGGPWDSVARILPNGSLLLPATGIVDEGTFRCRATNRRGKEVKSNYRVRVYQIPGKPEIVDPASELTASVPNKVGTCVSEGSYPAGTLSWHLDGKLLIPDGKETLVKEETRRHPETGLFTLRSELTVIPTQGGTHPTFSCSFSLGLPRRRPLNTAPIQLRVREPGPPEGIQLLVEPEGGIVAPGGTVTLTCAISAQPPPQVHWIKDGAPLPLAPSPVLLLPEVGHEDEGTYSCVATHPSHGPQESPPVSIRVTETGDEGPAEGSVGESGLGTLA
modifications: extracellular domain
notes: rodent soluble RAGE
- half-life [2]: approximately 20 hours

B2: mouse sRAGE: mouse soluble RAGE used as comparator in the AD mouse model (protein, UniProt Q62151 23-340, looked up)
extracellular domain: GQNITARIGEPLVLSCKGAPKKPPQQLEWKLNTGRTEAWKVLSPQGGPWDSVARILPNGSLLLPATGIVDEGTFRCRATNRRGKEVKSNYRVRVYQIPGKPEIVDPASELTASVPNKVGTCVSEGSYPAGTLSWHLDGKLLIPDGKETLVKEETRRHPETGLFTLRSELTVIPTQGGTHPTFSCSFSLGLPRRRPLNTAPIQLRVREPGPPEGIQLLVEPEGGIVAPGGTVTLTCAISAQPPPQVHWIKDGAPLPLAPSPVLLLPEVGHEDEGTYSCVATHPSHGPQESPPVSIRVTETGDEGPAEGSVGESGLGTLA
modifications: extracellular domain
notes: mouse soluble RAGE used as comparator in the AD mouse model
- Aβ plaques in the brain (mouse model of AD): fewer Aβ plaques
- cognitive dysfunction (Morris water maze) (mouse model of AD): less cognitive dysfunction

B3: TTP-3000: three domain RAGE fusion protein: human RAGE N-terminal sequence (to position 136) linked to human IgG Fc (γ1) without hinge; SEQ ID NO: 35-37, 57 (protein)
chain: QNITARIGEPLVLKCKGAPKKPPQRLEWKLNTGRTEAWKVLSPQGGGPWDSVARVLPNGSLFLPAVGIQDEGIFRCQAMNRNGKETKSNYRVRVYQIPGKPEIVDSASELTAGPSVFLFPPKPKDTLMISRTPEVTCVVVDVSHEDPEVKFNWYVDGVEVHNAKTKPREEQYNSTYRVVSVLTVLHQDWLNGKEYKCKVSNKALPAPIEKTISKAKGQPREPQVYTLPPSRDELTKNQVSLTCLVKGFYPSDIAVEWESNGQPENNYKTTPPVLDSDGSFFLYSKLTVDKSRWQQGNVFSCSVMHEALHNHYTQKSLSLSPGK
modifications: non-natural residues
- binding to immobilized amyloid-beta (increase in absorbance at 405 nm) (amyloid-beta (Abeta)): specifically interact
- binding to immobilized S100b (increase in absorbance at 405 nm) (S100b (S100)): specifically interact
- binding to immobilized amphoterin (increase in absorbance at 405 nm) (amphoterin (Ampho)): specifically interact
- day of graft loss for each animal [3, 4]: 42 days and 41 days and 34 days and 32 days and 30 days and 44 days and 46 days
- day of graft loss, Mean [3, 4]: 38.43 days
- time before detection of graft failure, in words ([3]; versus animals not treated at all): increase in the time before detection of graft failure
